Assay results reported in article PMC4284922.

Columns and labels:
STAT1 (Homo sapiens) = STAT1 (Homo sapiens) (UniProt P42224); experiment: analytical ultracentrifugation; settings: cited from earlier work
[1] = molecular target: T1, untagged STAT1, wild type (human), P42224; experiment: native gel or EMSA; extracts with GFP-tagged and with untagged STAT1 mixed and co-incubated for 0, 15 or 30 min at room temperature with [33P]-labelled M67 (single GAS site); band of intermediate mobility; settings: remark: other sources report otherwise
T1 chain: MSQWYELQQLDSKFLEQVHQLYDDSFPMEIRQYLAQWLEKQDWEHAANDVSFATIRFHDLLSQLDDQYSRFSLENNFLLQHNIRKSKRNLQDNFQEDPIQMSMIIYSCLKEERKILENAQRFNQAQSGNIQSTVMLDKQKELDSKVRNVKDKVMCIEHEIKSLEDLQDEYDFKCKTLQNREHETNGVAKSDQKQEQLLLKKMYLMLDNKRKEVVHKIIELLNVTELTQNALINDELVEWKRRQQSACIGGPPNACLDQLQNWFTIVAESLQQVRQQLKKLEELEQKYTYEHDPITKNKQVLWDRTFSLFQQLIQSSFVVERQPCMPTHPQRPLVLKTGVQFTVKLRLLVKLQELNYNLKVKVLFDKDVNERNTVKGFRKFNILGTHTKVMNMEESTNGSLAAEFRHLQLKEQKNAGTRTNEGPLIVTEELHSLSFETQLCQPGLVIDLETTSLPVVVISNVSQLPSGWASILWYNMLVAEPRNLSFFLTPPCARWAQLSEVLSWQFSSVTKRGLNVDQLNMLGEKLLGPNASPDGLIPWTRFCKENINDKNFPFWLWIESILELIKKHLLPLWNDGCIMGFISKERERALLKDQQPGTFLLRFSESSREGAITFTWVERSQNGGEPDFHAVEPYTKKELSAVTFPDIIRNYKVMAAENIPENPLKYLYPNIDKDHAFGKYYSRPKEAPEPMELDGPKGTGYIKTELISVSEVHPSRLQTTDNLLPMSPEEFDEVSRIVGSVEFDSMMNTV

For STAT1 (from UniProt P42224), which Kd (STAT1 (Homo sapiens)) is on record?
The Kd was 50 nM.

B1: untagged STAT1, wild type, P42224 1-750 (natural protein)
chain: T1 chain
modifications: here or on the partner: phosphotyrosine at 701 (tyrosine-phosphorylated, from IFNγ-stimulated cells); phosphotyrosine at 701 (tyrosine-phosphorylated, from IFNγ-stimulated cells)
Which half-life of the dimer [1] does the source give for B1 here?
The half-life of the dimer was greater than 10 min.
